# In paper PMC2034485:
# Target: Rad18 S471A;Rad6 (hHR6B) (Homo sapiens;Homo sapiens, UniProt Q9NS91;P63146 1-495;1-152, S471A|)
# Assay: EMSA, competition
# Rad18 S471A;Rad6 (hHR6B), sequence (Q9NS91 whole entry S471A, chain 1 of 2): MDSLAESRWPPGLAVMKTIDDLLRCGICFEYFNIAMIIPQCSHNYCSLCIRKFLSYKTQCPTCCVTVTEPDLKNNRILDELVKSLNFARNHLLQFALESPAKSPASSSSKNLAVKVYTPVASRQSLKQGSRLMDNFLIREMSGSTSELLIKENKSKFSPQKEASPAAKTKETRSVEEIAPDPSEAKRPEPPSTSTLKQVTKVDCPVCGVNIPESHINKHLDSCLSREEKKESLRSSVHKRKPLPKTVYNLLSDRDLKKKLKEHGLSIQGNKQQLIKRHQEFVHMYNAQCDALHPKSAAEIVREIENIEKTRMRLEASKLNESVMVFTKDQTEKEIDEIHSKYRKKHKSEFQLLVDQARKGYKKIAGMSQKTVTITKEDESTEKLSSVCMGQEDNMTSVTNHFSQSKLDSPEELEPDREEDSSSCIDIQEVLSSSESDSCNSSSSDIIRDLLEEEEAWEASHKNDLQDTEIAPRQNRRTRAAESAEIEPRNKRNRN
# Rad18 S471A;Rad6 (hHR6B), sequence (P63146 whole entry, chain 2 of 2): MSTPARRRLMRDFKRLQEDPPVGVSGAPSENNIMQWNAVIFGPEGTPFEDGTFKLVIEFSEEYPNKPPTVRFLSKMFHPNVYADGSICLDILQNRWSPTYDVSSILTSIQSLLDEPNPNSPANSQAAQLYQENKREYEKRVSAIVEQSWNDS
binder,measurement,value
TTTTTTTTTTTTTTTTTTTTTTTTTTTTTTTTTTT (ssDNA) [35T],binding result,binds
